Data reported in IntAct's records for PubMed 19196961.

B1: E3 ubiquitin-protein ligase CHIP (Homo sapiens), Q9UNE7-1 (parent)
chain: MKGKEEKEGGARLGAGGGSPEKSPSAQELKEQGNRLFVGRKYPEAAACYGRAITRNPLVAVYYTNRALCYLKMQQHEQALADCRRALELDGQSVKAHFFLGQCQLEMESYDEAIANLQRAYSLAKEQRLNFGDDIPSALRIAKKKRWNSIEERRIHQESELHSYLSRLIAAERERELEECQRNHEGDEDDSHVRAQQACIEAKHDKYMADMDELFSQVDEKRKKRDIPDYLCGKISFELMREPCITPSGITYDRKDIEEHLQRVGHFDPVTRSPLTQEQLIPNLAMKEVIDAFISENGWVEDY

Variants of: B1
Details: with lrrk2_human LRRK2, Q5S007
Chain of lrrk2_human LRRK2, Q5S007 (Q5S007 whole entry): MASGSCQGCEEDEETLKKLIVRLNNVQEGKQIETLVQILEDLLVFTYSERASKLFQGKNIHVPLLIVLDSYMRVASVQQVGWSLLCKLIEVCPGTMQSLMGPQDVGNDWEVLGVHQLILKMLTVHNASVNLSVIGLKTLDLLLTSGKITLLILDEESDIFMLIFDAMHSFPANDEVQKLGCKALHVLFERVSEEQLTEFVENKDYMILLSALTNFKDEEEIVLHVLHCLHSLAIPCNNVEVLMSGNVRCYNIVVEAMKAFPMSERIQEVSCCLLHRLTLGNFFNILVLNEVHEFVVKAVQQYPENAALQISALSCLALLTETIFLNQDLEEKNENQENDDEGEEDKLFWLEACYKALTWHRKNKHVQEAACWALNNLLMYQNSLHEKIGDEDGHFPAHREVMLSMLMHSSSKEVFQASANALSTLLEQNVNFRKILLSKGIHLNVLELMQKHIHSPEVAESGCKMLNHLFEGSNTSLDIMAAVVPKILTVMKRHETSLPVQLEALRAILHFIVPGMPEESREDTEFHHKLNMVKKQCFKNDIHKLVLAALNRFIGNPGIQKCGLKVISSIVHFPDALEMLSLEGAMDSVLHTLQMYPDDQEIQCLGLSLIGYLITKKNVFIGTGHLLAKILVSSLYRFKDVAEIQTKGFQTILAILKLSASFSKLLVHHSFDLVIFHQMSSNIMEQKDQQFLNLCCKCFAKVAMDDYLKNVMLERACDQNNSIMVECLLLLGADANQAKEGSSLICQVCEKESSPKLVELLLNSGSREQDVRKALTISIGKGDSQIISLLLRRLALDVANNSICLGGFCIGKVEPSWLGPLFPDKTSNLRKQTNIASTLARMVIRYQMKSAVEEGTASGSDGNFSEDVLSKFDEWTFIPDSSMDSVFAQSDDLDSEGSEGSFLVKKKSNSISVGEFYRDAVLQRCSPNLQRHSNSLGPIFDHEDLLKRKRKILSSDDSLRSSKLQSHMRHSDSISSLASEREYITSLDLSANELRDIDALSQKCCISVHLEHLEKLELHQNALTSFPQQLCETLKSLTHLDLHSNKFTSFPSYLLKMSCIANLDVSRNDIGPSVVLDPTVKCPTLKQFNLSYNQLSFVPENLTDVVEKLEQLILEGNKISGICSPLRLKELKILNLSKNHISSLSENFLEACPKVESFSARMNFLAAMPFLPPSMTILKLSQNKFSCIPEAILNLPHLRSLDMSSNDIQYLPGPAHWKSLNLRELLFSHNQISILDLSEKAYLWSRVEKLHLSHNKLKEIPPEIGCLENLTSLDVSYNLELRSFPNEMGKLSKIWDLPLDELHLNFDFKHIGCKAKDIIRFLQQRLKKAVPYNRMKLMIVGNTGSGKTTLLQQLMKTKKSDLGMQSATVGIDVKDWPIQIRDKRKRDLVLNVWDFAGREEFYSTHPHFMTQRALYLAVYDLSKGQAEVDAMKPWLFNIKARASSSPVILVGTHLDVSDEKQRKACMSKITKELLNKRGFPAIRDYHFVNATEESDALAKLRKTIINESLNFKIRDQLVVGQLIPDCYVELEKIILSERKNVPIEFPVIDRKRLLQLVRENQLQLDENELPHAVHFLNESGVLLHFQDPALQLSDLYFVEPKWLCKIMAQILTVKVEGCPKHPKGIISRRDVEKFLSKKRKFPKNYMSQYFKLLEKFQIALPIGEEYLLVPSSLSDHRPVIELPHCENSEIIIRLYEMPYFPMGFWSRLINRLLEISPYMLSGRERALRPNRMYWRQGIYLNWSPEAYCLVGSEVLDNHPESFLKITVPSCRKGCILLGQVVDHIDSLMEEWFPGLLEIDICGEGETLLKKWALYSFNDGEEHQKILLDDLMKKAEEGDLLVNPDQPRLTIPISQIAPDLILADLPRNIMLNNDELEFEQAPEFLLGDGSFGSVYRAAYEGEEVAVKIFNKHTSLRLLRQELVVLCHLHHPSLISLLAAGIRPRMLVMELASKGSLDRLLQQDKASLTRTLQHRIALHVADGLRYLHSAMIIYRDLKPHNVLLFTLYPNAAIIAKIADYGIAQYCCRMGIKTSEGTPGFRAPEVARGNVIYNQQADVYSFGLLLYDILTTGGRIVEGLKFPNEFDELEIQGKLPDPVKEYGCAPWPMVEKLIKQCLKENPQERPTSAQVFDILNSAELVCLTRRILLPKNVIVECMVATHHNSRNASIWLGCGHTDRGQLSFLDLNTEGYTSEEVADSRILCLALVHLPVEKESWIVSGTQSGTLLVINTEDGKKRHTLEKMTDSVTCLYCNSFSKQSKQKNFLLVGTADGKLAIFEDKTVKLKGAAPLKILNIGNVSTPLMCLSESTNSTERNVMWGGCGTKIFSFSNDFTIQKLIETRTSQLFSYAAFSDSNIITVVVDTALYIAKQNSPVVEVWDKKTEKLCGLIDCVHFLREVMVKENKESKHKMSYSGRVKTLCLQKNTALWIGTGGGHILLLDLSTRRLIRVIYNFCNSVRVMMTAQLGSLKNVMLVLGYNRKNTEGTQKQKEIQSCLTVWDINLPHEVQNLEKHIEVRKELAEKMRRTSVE

Question: Which “effect of a mutation on the interaction” value does the source give for K30C here?
Answer: disrupting interaction
